Target: the molecule itself
Assay: SEC; Superdex 200 10/300 GL; protein dialysed in 20 mM HEPES pH 7.5, 50 mM NaCl, 10 mM β-mercaptoethanol, 10% glycerol, about 2 mg/ml; size by comparison with a standard curve

B1: StrepII-MYRF-319:577, the N-terminal fragment from the auto-processing of StrepII-MYRF-319:708-10xHis (domain or fragment, human, UniProt Q9Y2G1-2 319-577, looked up)
chain: PSPGLLQDSDSLSGSYLDPNYQSIKWQPHQQNKWATLYDANYKELPMLTYRVDADKGFNFSVGDDAFVCQKKNHFQVTVYIGMLGEPKYVKTPEGLKPLDCFYLKLHGVKLEALNQSINIEQSQSDRSKRPFNPVTVNLPPEQVTKVTVGRLHFSETTANNMRKKGKPNPDQRYFMLVVALQAHAQNQNYTLAAQISERIIVRASNPGQFESDSDVLWQRAQVPDTVFHHGRVGINTDRPDEALVVHGNVKVMGSLMHP
notes: Myelin regulatory factor MYRF (C11orf9), human, 1111-amino-acid-long isoform; numbers count on: the 1111-amino-acid isoform (NP_037411); Cloned in pET52b between BamHI and SacI; The C-terminal 10xHis stays on the other cleavage product; also called N-terminal fragment of MYRF-319:708; source: E. coli BL21 Star (DE3) pLysS, cut product of StrepII-MYRF-319:708-10xHis, purified (Ni-NTA flow-through, …)
- stoichiometry N: 3

Source: publication PMC3742443, “A Bacteriophage Tailspike Domain Promotes Self-Cleavage of a Human Membrane-Bound Transcription Factor, the Myelin Regulatory Factor MYRF” (PLoS Biology, 2013)
